In paper PMC10117100:

Columns and labels:
Gluc1-ΔNp73α FL (human) = Gluc1-ΔNp73α FL (human) (UniProt O15350); experiment: split reporter (BiFC, NanoBiT); Gaussia princeps protein complementation assay (GPCA): Gluc1 and Gluc2 N-terminal fusions co-transfected in HEK293T, luminescence of lysates after 48 h as normalized luminescence ratio (NLR); pairs count as interacting if NLR is above 5
[1] = molecular target: Gluc1-ΔN(1 to 433) (human); experiment: as above
Sequence of Gluc1-ΔN(1 to 433) (human) (O15350 other isoform, or with tags, fused parts or gaps mutant): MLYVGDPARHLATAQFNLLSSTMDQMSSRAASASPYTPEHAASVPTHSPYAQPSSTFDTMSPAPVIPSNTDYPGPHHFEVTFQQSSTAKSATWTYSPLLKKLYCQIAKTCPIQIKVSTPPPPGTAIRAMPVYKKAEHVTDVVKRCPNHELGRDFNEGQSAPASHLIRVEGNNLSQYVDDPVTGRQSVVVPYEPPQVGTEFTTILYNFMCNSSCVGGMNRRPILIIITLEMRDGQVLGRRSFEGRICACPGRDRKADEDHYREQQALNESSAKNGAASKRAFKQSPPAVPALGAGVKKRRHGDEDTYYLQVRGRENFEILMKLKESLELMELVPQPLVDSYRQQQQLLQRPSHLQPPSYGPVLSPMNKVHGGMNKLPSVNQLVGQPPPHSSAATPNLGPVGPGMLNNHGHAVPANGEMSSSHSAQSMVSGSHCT

Sequence of Gluc2-E2F4 FL (Q16254 whole entry): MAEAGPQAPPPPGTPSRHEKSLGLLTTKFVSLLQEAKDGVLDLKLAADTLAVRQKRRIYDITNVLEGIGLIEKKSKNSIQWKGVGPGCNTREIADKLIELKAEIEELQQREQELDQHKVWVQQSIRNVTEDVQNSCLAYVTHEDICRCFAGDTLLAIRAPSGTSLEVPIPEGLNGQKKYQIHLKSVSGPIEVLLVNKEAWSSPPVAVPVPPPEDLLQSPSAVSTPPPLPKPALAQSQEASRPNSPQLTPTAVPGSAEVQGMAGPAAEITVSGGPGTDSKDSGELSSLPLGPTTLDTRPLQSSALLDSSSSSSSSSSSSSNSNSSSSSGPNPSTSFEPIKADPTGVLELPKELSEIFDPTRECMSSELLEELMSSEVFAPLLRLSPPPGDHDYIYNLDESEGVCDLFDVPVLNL
Sequence of Gluc1-ΔNp73α FL (human) (O15350 other isoform, or with tags, fused parts or gaps mutant): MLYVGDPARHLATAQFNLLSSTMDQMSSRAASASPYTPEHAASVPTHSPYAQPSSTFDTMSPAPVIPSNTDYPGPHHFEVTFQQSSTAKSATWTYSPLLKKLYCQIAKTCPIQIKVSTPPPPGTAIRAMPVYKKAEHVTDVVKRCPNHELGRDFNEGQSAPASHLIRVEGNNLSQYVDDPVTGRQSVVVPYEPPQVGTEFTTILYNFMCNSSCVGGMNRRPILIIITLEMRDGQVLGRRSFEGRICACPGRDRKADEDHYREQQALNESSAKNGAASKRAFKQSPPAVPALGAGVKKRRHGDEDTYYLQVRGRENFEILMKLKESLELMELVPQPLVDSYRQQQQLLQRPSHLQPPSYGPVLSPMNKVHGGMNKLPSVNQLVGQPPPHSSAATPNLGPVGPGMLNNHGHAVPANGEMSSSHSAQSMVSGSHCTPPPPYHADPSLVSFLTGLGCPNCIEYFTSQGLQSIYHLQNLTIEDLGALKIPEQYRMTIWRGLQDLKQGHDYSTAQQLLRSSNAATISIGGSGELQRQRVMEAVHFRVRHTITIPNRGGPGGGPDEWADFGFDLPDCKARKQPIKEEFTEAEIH
Sequence of Gluc2-E2F(1 to 336) (Q16254 1-336): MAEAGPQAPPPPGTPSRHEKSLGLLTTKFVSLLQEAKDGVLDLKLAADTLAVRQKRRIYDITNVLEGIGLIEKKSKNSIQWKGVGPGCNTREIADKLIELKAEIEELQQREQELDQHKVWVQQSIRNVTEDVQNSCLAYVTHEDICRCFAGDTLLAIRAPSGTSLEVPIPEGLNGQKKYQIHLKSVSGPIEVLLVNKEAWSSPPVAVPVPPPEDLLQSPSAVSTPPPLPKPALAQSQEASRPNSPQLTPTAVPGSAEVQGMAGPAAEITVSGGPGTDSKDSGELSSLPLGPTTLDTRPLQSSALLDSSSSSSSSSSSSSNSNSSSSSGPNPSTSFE

Row | NLR normalized to the ΔNp73α-E2F4 FL interaction (Gluc1-ΔNp73α FL (human)) [%] | normalized luminescence ratio (NLR) [1] | Substance
1 | 60 | – | Gluc2-E2F(1 to 336) (from UniProt Q16254 1-336) (domain or fragment)
2 | – | > 20 | Gluc2-E2F4 FL (from UniProt Q16254 1-413) (natural protein)
